Source: the supplement of paper PMC9170038

Legend:
[1] = tested on: MS2 coat protein; test: apparent KD of MS2 coat protein, switch ON state; designed switch direction (-1 OFF switch, 1 ON switch): 1; higher = weaker reporter binding; conditions: FMN input: 0 or 200 uM; Eterna round: R93 (includes R88 designs)
How it was run: (§1)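 The buffer was 100 mM Tris-HCl pH 7.5 with 80 mM KCl and 4 mM MgCl2, used without or with constant ligand. In it, RNA switches transcribed on-chip from Illumina sequencing clusters were titrated with SNAP-549-labelled MS2 coat protein in twofold steps from 0.7 or 1.5 nM to 3 µM. Apparent KD for each design is the median of its normalised cluster binding-curve fits.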

[2] = tested on: MS2 coat protein; test: apparent KD of MS2 coat protein, switch OFF state (with FMN for OFF switches, without FMN for ON switches); designed switch direction (-1 OFF switch, 1 ON switch): 1; higher = weaker reporter binding; conditions: FMN input: 0 or 200 uM; Eterna round: R93 (includes R88 designs)
How it was run: as §1

Sequence | apparent KD of MS2 coat protein [1] | apparent KD of MS2 coat protein [2]
AACAAUCUAUCUGAGGAUAUCAUGUCAAAGACAUGAGGAUCACCCAUGUCCAGGAAAACUGGAUAUGAGAAGGCAGAUAGAUUGA [SS2: 1105] | 179 nM | 3310 nM
AACAAUCUAUCUGAGGAUAUCAUGUCAAAGACAUGAGGAUCACCCAUGUCGCAGGAAACUGCUCAUGAGAAGGCAGAUAGAUUGA [SS2: 1128] | 11.2 nM | 17.2 nM
AACAUACAUGAGGAUCACCCAUGUUCCGGCAGGUCAGGAUAUUCAUCGAAAGUGUUAUAAGAAGAAGGGACAUAAA [JR_SS001_Sub011] | 34 nM | 48.9 nM
AAGAAACAUGAGGAUCACCCAUGUAAGAUAAACACAGGAUAUGCGAAAGAAAUAAAGAAAGCAGAAGGGUGAAGAA [Mat - Same State 1 - Tesla mod - D147] | 14.3 nM | 26.8 nM
AAGAAACAUGAGGAUCACCCAUGUAGAAACAUGGGAGGAUAUACAAAGACGAAAGUCAAAGUAGAAGGCCUAAGAA [Mat - Same State 1 - Mod - D164] | 102 nM | 63.5 nM
AAGAAACAUGAGGAUCACCCAUGUGAGAAUAACACAGGAUAUGCGAAAAGAAACAAAGAAGCAGAAGGGUGAAGAA [Mat - Same State 1 - Tesla mod - 54] | 20 nM | 40.3 nM
AAGAAAGUUUACGAGGAUAUGUUCCGCAGAACAUGAGGAUCACCCAUGUGAACAAGAAAGGCGACGCAGAAGGCGUGAGCUAUGA [Anesdien] | 32.7 nM | 106 nM
AAUAAACAUGAGGAUCACCCAUGUAAUAAUAUGGGAGGAUAUACUAAAAUAAAAUAAAAUGUAGAAGGCCUAAUAA [LROPPY Same State 1 - v05_deltaG=1.05 break up the As] | 35.5 nM | 159 nM
AAUACAAAUAGUCAGGAUAUCAAAAAUAAGACAUGAGGAUCACCCAUGUAAUAAGUAAAAGUAAAUGAGAAGGGACAGGGUGAAA [JR_SS002_Sub401] | 530 nM | 59.2 nM
AAUACACAUGGUCAGGAUAUCGCAGCUAGGACAUGAGGAUCACCCAUGUCGUAAGUAAAAGUAAAUGAGAAGGGACAGGGUGACC [JR_SS002_Sub406] | 133 nM | 28.2 nM
AAUAUACAUGAGGAUCACCCAUGUUAGGUGGGACUAGGAUAUCAAAAUAAAUAAAGAACAUGAGAAGGAGUAUCAA [JR_SS001_Sub401] | 94.5 nM | 152 nM
AAUAUAUUAAGUGAGGAUAUCAUAGGAAAAACAUGAGGAUCACCCAUGUGGGAAACCUGGUCGGGUGAGAAGGUACUUAAUAUAU [Samwise Clockwise 31 - Jieux - Same State 2] | 69.2 nM | 175 nM
AAUCCAAAUAGUUAGGAUAUGGGAAUUAAAACAUGAGGAUCACCCAUGUAAUUGAAACAAGUUAACCAGAAGGGACAGGGUGAAA [JR_SS002_Sub209] | 68.8 nM | 46.1 nM
ACUAUACAUGAGGAUCACCCAUGUCAGGUGGGACUAGGAUAUCAUAAGCCAGAGUAAGUAUGAGAAGGAGUAGAAA [JR_SS001_Sub305] | 73.2 nM | 74.7 nM
AGAAAACAUGAGGAUCACCCAUGUAGGAAUAUGGGAGGAUAUACAAAGACGAAAGUCAGAGUAGAAGGCCUAGGAA [salish99-SS1-089] | 20.7 nM | 71.5 nM
AGAAAUAAAAGACAGGAUAUCCAAACUCAAACAUGAGGAUCACCCAUGUAAAAGAAAAUAAAGUGGGAGAAGGGUCAAAAUAAGA [Jieux modified + C segment V4] | 12.6 nM | 33.1 nM
AGAAAUAAAAGAGAGGAUAUCCAAAAGAAAACAUGAGGAUCACCCAUGUAAAAGAAAAUAAAAUGGGAGAAGGCUCAUGAUAAAG [JL In the Red Helter Skelter 2 mod 1] | 42 nM | 35.8 nM
AGAAAUAAAAGCGAGGAUAUCCAAAAGAAAACAUGAGGAUCACCCAUGUAAAAGAAAAUAAAAUGGGAGAAGGCGCAAAAUAAAG | 14.7 nM | 27.3 nM
AGAAAUAAACCGAAGGAUAUCUAAACCUAAACAUGAGGAUCACCCAUGUAAAAGAAAAUAAAAUGGGAGAAGGUCGGAAAUAAGA [Designing denovo 12] | 17.5 nM | 29.9 nM

Sequence | apparent KD of MS2 coat protein [1] | apparent KD of MS2 coat protein [2]
AGAAAUAAAGCUGAGGAUAUCCAAAACCAAACAUGAGGAUCACCCAUGUAAAAGAAAAUAAAAUGGGAGAAGGCAGCAAAUAAGA [Designing denovo 8] | 12.5 nM | 21.9 nM
AGAAGACAUGAGGAUCACCCAUGUGGGAAUAUGGGAGGAUAUACAAAGACGAGAGUCAGAGUAGAAGGCCUAGGAU [salish99-SS1-092] | 37.3 nM | 118 nM
AGAAGACAUGAGGAUCACCCAUGUGGGAUUAUGGGAGGAUAUACAAAGACGAGAGUCAGAGUAGAAGGCCUAGGAG [salish99-ss1-114(!)] | 45.4 nM | 66.4 nM
AGAAUAAAAACAGAGGAUAUCCAAAAGAAAACAUGAGGAUCACCCAUGUAAAAGAAAAUAAAAUGGGAGAAGGCUGAAAAAAAGA [Mat - Same State 2 - Eli mod - D98] | 25 nM | 39.3 nM
AGGAAACAUGAGGAUCACCCAUGUAAAAAUAUGGGAGGAUAUACAAACAGGAAAGAGAGAGUAGAAGGCCUAAAAG [Garnet 20] | 72.9 nM | 41.8 nM
AGGAAACAUGAGGAUCACCCAUGUAAAAAUAUGGGAGGAUAUACGAAGACAAAAAAAAAAGUAGAAGGCCUAAAAG [Garnet 12] | 65.2 nM | 266 nM
AGGAAACAUGAGGAUCACCCAUGUAAAAGGUGGGUAGGAUAUGCGAAAAGAAAAAGAAAAGCAGAAGGACCAAGAA [62%, Something completely different, 1] | 38.7 nM | 108 nM
AGGAAACAUGAGGAUCACCCAUGUAAAAGGUGGUUAGGAUAUGCGAAAAGAAAAAGAAAAGCAGAAGGGACAAGAA [Inspired by JR's SameStare1_sub2] | 237 nM | 415 nM
AGGAAACAUGAGGAUCACCCAUGUAAAGAUGGGCGAGGAUAUCGAAAGAAAAGAAAGAAACGAGAAGGUGCAAAAG [59%, Flamingo, 1] | 409 nM | 251 nM
AGGAAACAUGAGGAUCACCCAUGUAUAAAAAUGGGAGGAUAUACAAAGACGAAAGUCAAAGUAGAAGGCCUAAAAA [76%, Meechl, 7] | 18.8 nM | 51.5 nM
AGGAGACAUGAGGAUCACCCAUGUGAGAAGAGGCGAGGAUAUCGAAAGAAAGAAGAGAAACGAGAAGGCGCGAGCA [salish99-SS1-020] | 19.7 nM | 37.1 nM
AGGAGACAUGAGGAUCACCCAUGUGCACGGUGAAGAGGAUAUGUGCGUGGAGAGACACGGACAGAAGGCUUAAGAA [JR_SameState1_Sub5] | 23 nM | 38.9 nM
AUAAAACAUGAGGAUCACCCAUGUAAAAAAGCAUGAGGAUAUAUAAAAAGAAAAAGAAGAAUAGAAGGCAUAAUAA [JR_SS001_Sub1223] | 60.7 nM | 50.5 nM
AUAAAACAUGAGGAUCACCCAUGUAGAAACAUGGGAGGAUAUACAAAGACGAAAGUCAAAGUAGAAGGCCUAAAAG [Meechl MS2 SS1 2] | 104 nM | 67.3 nM
AUAAAACAUGAGGAUCACCCAUGUAGAAAUAUGGGAGGAUAUACAAAGACGAAAGUCAAAGUAGAAGGCCUAAAAG [Mod of Meechl's design Meechl MS2 SS1 2] | 24 nM | 66.2 nM
AUAAAACAUGAGGAUCACCCAUGUGAAAAUAUGGGAGGAUAUACGUAGACGAAAGUCGACGUAGAAGGCCUAAAAG [Same State 1.4n.2 (Mat - Mod of Eli - )] | 28.8 nM | 81.8 nM
AUAAAAGAAGCGAAGGAUAUCCAAAACUCAACAUGAGGAUCACCCAUGUAAAGAAAGAAAAAAUGGGAGAAGGUCGCAAAGAAUA [73%, More Fisker Same State 2, D3, 10] | 11.8 nM | 26.7 nM
AUAAAAUAAAAGGAGGAUAUCCAUAAUAAAACAUGAGGAUCACCCAUGUAAAAAAGAAGAAAAUGGGAGAAGGCCUAAAAUAAAU [SS2 M 27] | 11.4 nM | 23.6 nM
AUAAAAUAAACUGAGGAUAUCUAUAAUAAAACAUGAGGAUCACCCAUGUUUAAACAAAGAUCAUGGGAGAAGGCAGAAAAUAAAU [SS2 M 38] | 37.8 nM | 36.6 nM
